According to article PMC6900781:

B1: HA-dCENP-C(1264-1411) [Drosophila melanogaster] / CAL1-GFP-LacI [Drosophila melanogaster] (parent)
chain 1: GPVVFSTPLRDEQEEASTKLMQWLRGVGDAPPSASMSDENASVSSANELIFCQVDGIDYAFYNTKEKAMLGYMRFKPYQKRSMKQAKVHPLKLLVQFGEFNVETLAVGEEKEVHSVLRVGDMIEIDRGTRYSIQNAIDKVSVLMCIRS
chain 2: MANAVVDEETLEAMVYERSKAWSSKMADFASLEDGMEIDVAEFDNLFHGEDEDPDLDDVAKEAVEDNVPDEAKLEMGHINATSVTELTLILCANEDNEAKAEIEEILNQTVPVVEEHKRKWREAGLDRILDTFDEKQIEHHVGRWMRRHNSVYLEASPPKYLPPHHNSISDESDESMHSIDTARYIQQSRRRNAHMTNKNMTTIKMYRKHSHKRDELRAKYAYGDEQEHRHHMQAVLLRRRERERQLAYLASTPMQCVYSSGHHMRRKNLRKRRINSWMFDSASSSEEDTSFGGCDCHSCRRHYALSRSVYQSCPYGRGQREYHHRQMASRTMHTMRRQHTFDMEMDLRPRLPENECSCCNSDRLCSNVIHIANSSTEEWVVENRSNHLTQETQEKTRKQKHQPMDARKVSHQPVCSKGHEQKPLSSKATSVSKLVLSKEKYMQMFDSESSDEDNALAKKGLLCCSDKKKGMTFPTPNAAGKITHPTSSAKKAIRKEARPNGLAQIQEEGPTATNSPIESTYLPVAHMKSVSIDGSSGTSATFESPAKKAPKRGIRETSPLNGNELQQLISTIPIADEKASSLMEKVDNCIGRESFDDRNKDFMHMENSSTKTAVEKSTKQKRVSGKKSEIPKSIITNNEILEKNSTETLSEKQVAAKAKKQSVRKTGATGKPSTSRLKKSEKTKTTSSVTSTSKLEQVREEESDVSSEVLAKPKPQCSTTASILKQGGDGASNSEDDLQIALAMSKATYKEEQQKRKKTKREPSNKQPQSPAEKSMTVFNNQSVACNSTALANDTACYRVLPKRRGVKRAAAVSTTEEKTATNSSSSPTSSLEEMGSPTGGDPDCTVVTSTTGCEPPASERQEIPATIKITKRGILLHSPSAPEGASFTLTEQGLGKIIGERWARKYLKYHIGSRSFDSRHSVYYQPTPQLAAALSAPQDAQNIGNISGSSASDDDIFEQINRYGTVYSILENNSGDK
B2: HA-dCENP-C(1264-1411) [Drosophila melanogaster] / GFP-LacI-dCENP-C [Drosophila melanogaster] (parent)
chain 1: B1 chain 1
chain 2: MSKPQNNDTLELDDILSQPVKDKERFAAFMMRKLAENKPAQNDNLFGNFKLDFDLDFEVPLIKKSQAKPKSKLPEVQPLGELVSKNSAATEKVNEPPVDQAPNENVPPRRSPTLSPNNRRSMRRSGNVPGSDKLRRHAIRRRSRSCGRQLLPEFEETVNLTRSISSPVNFLPEISSTPCTEKQKEEVAKNTTRVETDKPAEKPMELSQEPEPENPLQTKVTSPARNPILAAEIEQICKERQSSFHKNVLQLDYSGRAPYSRPPTPSSPSVAGLRRTYTMEKGPAPGQLLLSPSHRYDTPSKMPVVKAKRFNQELMVPDTPERQSHDPAWQSEPQPEFVVPETQPQDLGELVQTLSRSAISPIVVINTSNSNRSVRRDAVAMKSVPTSPVTALSSPPIAPSPRRSAAASPQKSIAQLPRVEENMDAIMTDDESDEHPSTVPLNLAPSGGNTTRQRRLRSSNRARATIESQESSMRLLNLHKSVNAKKSKPRKTAIPLNKAPSAPINGEQFARELTRMSNYEILDLRKRNSLNEIYPLNGHRNHRSEKLILEEEIQRELLRRNLMDEAEGLPKQQSSDDSNEDYIPVPPKTQSLRTKSNDRSQGRGRPRSTRRDLPMTTELVNYLGLSQTLETRRKSSKDGKRCLYTKGSSDHEDNDSLSPVKLPRLSKSIQIVPPPPVSLRYSQSLQNLPCSGKFDFDNVVMAAPPDFHDSVNSDAIEIAPPPPEYVVNTRGRSTSGRKSNKNDLVLPPPGYEGGQEEEHDERPSQPRCTAKELQQSTQNGRRAMENELVPPPIEYVEEENRNNEQSRRSTKNGNLVDRNTHNAVEYCEPPEPPEYDDSDHGQASILRRSGKKLQHSKQSVQKSNKEQIIAPSYENNEDYDSDEEPIYNEEYGKEESQNKNVTRRKSDKDEMASHTLECIEGPDPNWNSSCNKQNRNHQNASKSKENDKLANRSSKSQKLSNPRQNAVGTEKSVALSNRGEECTEKSSDVMESLRVNTPTPPIDQNSDDVPSRNPSPSRTLLSDDVPSTSRAALEFLQRSQNMSKSRPPDESSADVVFKKPLAPAPRAKSKKGKSEVDKLKLAKMPVEAEELNTTGIRRSKRGQVPLQMSWCHTMDPSKFNFMSGFIEPRSKNSKTKKGNLSKAKKASATKPKPTVEKNLPDNRGPLCSSTPRISEKLPGAIPHSESLGLSTLTWEETEVQAEAEKVPKKRGRPKKAVGGVQTDTEAEPEPEPEPMISSVAPLTSDQEEPDVPDEQAPYTEAALGPVVFSTPLRDEQEEASTKLMQWLRGVGDAPPSASMSDENASVSSANELIFCQVDGIDYAFYNTKEKAMLGYMRFKPYQKRSMKQAKVHPLKLLVQFGEFNVETLAVGEEKEVHSVLRVGDMIEIDRGTRYSIQNAIDKVSVLMCIRS

Variants of: B1
Assay: LacO-tethering recruitment assay (HA immunofluorescence intensity at LacO)
Conditions: with CAL1-GFP-LacI [Drosophila melanogaster]; parent: 0.68; read off a plot

Row | response (normalized to GFP) | Variant
1 | 0.12 | chain 1 GPVVFSTPLRDEQEEASTKLMQWLRGVGDAPPSASMSDENASVSSANELIFCQVDGIDYAFYNTKEKAMLGYMRFKPYQKRSMKQAKVHPLKLEVQFGEFNVETLAVGEEKEVHSVLRVGDMIEIDRGTRYSIQNAIDKVSVEMCIRS [chain 1 L94E L143E]

Variants of: B2
Assay: as above
Conditions: with GFP-LacI-dCENP-C [Drosophila melanogaster]; parent: 1.6; read off a plot

Row | response (normalized to GFP) | Variant
2 | -0.05 | chain 1 GPVVFSTPLRDEQEEASTKLMQWLRGVGDAPPSASMSDENASVSSANELIFCQVDGIDYAFYNTKEKAMLGYMRFKPYQKRSMKQAKVHPLKLEVQFGEFNVETLAVGEEKEVHSVLRVGDMIEIDRGTRYSIQNAIDKVSVEMCIRS [chain 1 L94E L143E]
